Results reported in the DeepSol protein solubility set.

Assay: soluble on expression in E. coli; label from the status in PepcDB or PDB records

With “MGSDKIHHHHHHMKYDVAVYIGRFQPFHNGHLSVVQRSLEVAQHLLILTGSHLASPDTRNPWSSEEREEMIRAALPANWQKRVSFIPIRDHLYSDNLWLTEIQQKVLEEAGEEARIVLVGHRKDRSSYYLDLFPQWDFLEVPRLEAVHSTAIRDAYFSGSEESNYAAALPAGVADYLTAYQQTGRYQWLRDEADYIKGYRQAWAVAPYAPTFVTTDAIVIQSGHVLVVRRKARPGKGLIALPGGYIQQDETVLEGMLRELREETGLKVPKPVLQGSIVENRVFDAPQRSQRGRIITHAFCIHLKPGPLPSVRGGDDAEKAWWMSLADLYAHEDQFFEDHFQIIQHFVSRT” as the sequence, how does the “soluble on expression in E. coli” value read?
The value was “not soluble”.

With “MGSDKIHHHHHHMKRPGFIERHHLWTEIQKEASEKIKTIVKEQDLLLIRTAWSDQHGIVRSKSLLPQAFFSALENGMQISTGTFLLDTGGAIVFNPFVPGGSLDMPLMTGAPNLVAVPDPDTFKIVPWAKRTGFILCDEYFQNGQPMPFSSRGILRQSLIDLHQRGLEHIVGLEVEWYLAKLEDPMLAIANVGSSGKPGEPAKVSAVDHSFQYLLESHNPEIQDLLGLLAENLVEMKLPLRSVENEGGVGQFEFTFDPIPALQAADTMMIFRMATKQICRQQGYIASFMCRPGLQGSSSNGWHLHQSLVDLTTGENAFMSANSQTLTSDLAKHFVGGLLKHANAASVFTTPTINGYKRFRPYSLAPDRAGWGLENRGAMIRLQGGFDDPSTHIENRVGEPAANPYLYMASQLISGLDGVDCKLDPGSPTEEPYTTENPILPKSLSEAISYLSQSELFPQKMGQQFINFIIKMKESEINRFLQSVADQPPEEYLKQVTNWEQREYFELF” as the sequence, how does the “soluble on expression in E. coli” value read?
The value was “not soluble”.

For “MGSDKIHHHHHHVLVVVPEILDPKVDLVFKKVFGSQENKSILLSFLNAVLNWTGEQKIVDVKILNPYLEPESIDDSVGILDIKLQLENDDLVDVEMQIGNLGNMERRSTYYTCRMFGDQNISGGRYQDLNRVIAINVLDFTRIKNIERYHTKFRLRETQENIDLTDAIEIHFIELPKLRQEMASYTDPLDRWVVFLKGGWNMELLDRLAKEDPAIGQAKQVLEQMASNPRERELYELRRKAILDRNSALYEAKMEGKAEGKAEGQAIILLRLLKKKFGFMPVEMENRVMSMSAEKLQELAEAIFDLGTIDELNNFISR”, which “soluble on expression in E. coli” value is on record?
The value was “not soluble”.

Which “soluble on expression in E. coli” value does the source give for “MGHGEEPLTATYKTQRPPWIGLWSDREYKGRADWWKEPGLEDSVTRSGKLRLYRARFREEDPDWYDPKVKDGESLAGPFGLDSKKTKNLTKKGDQPGELSEFQNKVYEGSHQFKAIAEKFGISKEHPGLSVSPTLSDNMLTPKDELGRNAVLPNSWYPAGPRFFDSPLNEGSFWKGLAAAKYAGILLAPYTMLEIRALNTVSVSEFSPRTYMKRYLQLAPFPLAVAFAWGFSLSAASSIRHKDDVHNHWFASVAVGSTVATMKSNVALGTTAAIFTAILGAFWQYQRHSETGLQGMTAHPQSAGIWGGPLLWQKMQLGNADVPTTRY” here?
The value was “not soluble”.

Which “soluble on expression in E. coli” value does the source give for “MGSDKIHHHHHHMFSDFKKDFCLANPGYLLSHSVGRPLKSTEQVFKEAFFAPWQDSGREPWGQWLSVIDDFTFALSKLFNGHQKDFCPQVNLSSALAKILMSLARLNREHAVVLMSEIDFPSMGFAIKKALPASCEVRFIPKTLDITDANVWDAHMGSDIDLVFVSHAYSNTGQQAPLANILAMARQYGCLSVVDVAQSAGIIPLNLAQLQPDFLIGSSVKWLCSGPGAAYLWVNPSIIDSCQPKDVGWFSHENPFEFNIHDFRYHNSALRFWGGTPSIAPYAIAAHSIHYFADIGVEQLRKGNQLLIDIVAEALDQEFVSPREIEKRSGTLVLQFGEQQGQIMAALAKANISVDARSMGIRISPHIYNDKADIQLLLSVIKAHR” here?
The value was “not soluble”.

With “MSLVNTIGFDREKYIEMQSQHIRERREALGGKLYLEMGGKLFDDMHASRVLPGFTPDNKIAMLDRIKDEVEILVCINAKDLERHKIRADLGISYEEDVLRLVDVFRDRGFLVEHVVLTQLENDNRLALAFIERLQRLGIKVSRHRVIPGYPTDMDRIVSDEGFGLNEYAETTRDLVVVTAPGPGSGKLATCLSQVYHEHKRGVAAGYAKFETFPIWNLPLEHPVNLAYEAATVDLNDANVIDHFHLAAYGEQTVNYNRDVEAFPLLKTLLERLMGESPYQSPTDMGVNMAGNCISDDAACRHASEQEIIRRYFKALVEEARTGKDSTQSDRAAVVMAKAGIKASQRVVVEPARQVEERTSLPGCAIELVDGSIITGATSDLLGCSSSMLLNALKHLAGIDDAIHLLSPESIEPIQTLKTVHLGSSNPRLHTDEVLIALSVSAATDSNAQKALDQLKNLRGCDVHTTTILGSVDEGIFRNLGVLVTSDPKFQKNKLYQKREGHHHHHH” as the sequence, how does the “soluble on expression in E. coli” value read?
Its value is “soluble”.

For “MSLIKMQVWKKLFAKSPFKPLIRHAEVVVQTVETLEKALDSWARGDYENMKEYAKKVDDLEDIADKIKSELRDSITSKLLMPVQRTDILEYLHMQDKIADAAEDTAKWLLIKRNLDSIPNDIKDIILKMGKESIKAAKLVYEAIKQLDNVLESGFAEKEIKKEYKIIKQIEEVESKIDGLDSKLMEIVFTSELDWKDGLYILNIARTLSNISDKAKDTAERIRVLMNKEGHHHHHH”, which “soluble on expression in E. coli” value is on record?
The value was “not soluble”.

With “MNGFARRTEQKKQAIKQAVLELLQKIRDPREVTIQEIAKQAHVSPVTIYNYFGSKENLIRETLLDDVVRQVDEYEAFLKQAGSFEEKVKHTIFQEVKLFKEGWTDVMLRWMQEDEEFRRSIELLNETRVLPLVVDMIREAQKKGEVDPRLSIEALLLYLNGWRELSEKIPASLYNERLVEDMVRLFFYGIKGETR” as the sequence, how does the “soluble on expression in E. coli” value read?
Its value is “not soluble”.

With “MTSSNKILLVFLLFFCIQDVASENGLDVSALSGKSKKFFFDMTKQVMGVPSLKPENLAAQAFFRSFLDKYTKLDDKVKNDMTQHVPKATKLFDAAAKKYNIDPSSAFKMLSTFFETFKKGASSEMASKGLQMAGKLLGGKGSGGGGGLLGFLGTRR” as the sequence, how does the “soluble on expression in E. coli” value read?
The value was “not soluble”.

With “NQKMIASAFNNALGAIQDGFDATNSALGKIQSVVNANAEALNNLLNQLSLVPRGSGGSGGSGGLNVTLLDLTYEMNRIQDAIKKLNESYINLKE” as the sequence, how does the “soluble on expression in E. coli” value read?
The value was “soluble”.

Which “soluble on expression in E. coli” value does the source give for “PQLDEARTNGLMKTLFPHQVLSTIQASRILKTYNGVVIADSTGLGKTRVAINLAVMAINDGRNPLLIAPKSALETTWKDEMDKTHVHIDSKRSEYLSQHPDEAIKEIQGKDFIIVDEAHYFKSPGSNRYSVLRDLMAAGQKQIVLLTATP” here?
Its value is “not soluble”.

For “MSLKTTPLPILDLLEAYRPLFVEALGNRSRKERSKKERYIAKITAPCIDACPAHVDIPAYIEGVRDHLLGDSLAATRKSMPLAQVCGRVCPHPCESACRRGDLDEPISIMELKRLGADYEKERHGGFIHPYPPKPRRKDKRVAIIGAGPAGLSSAYYLALEGIMSDVFEALPVLGGEVSVGVPEYRMPIDRYYHDIEAIKSLGVSFWTNHFVSAKELDEMRQKYDAIILATGARISKKLGVKGEEESLGGYAPAIPWLDQINLATKFNLAALPDLRGKSVVCVGGGFTSMDVVRCAVRLGAKRIVMLYRRDEATLIQNTSKEEYHEALEEGVEFLFQCAVQEIKSCGGEIKALLVEEYEVVYEEGARKPSLRRIEREPLFLECDLLIPAVSQEVDRSFIPKEWNLESTSWGSFKTNGKDFSTTLRGVFAAGDCEKGPLTIVNAVGQGKRAASVVSRFLEDGEEGHHHHHH”, which “soluble on expression in E. coli” value is on record?
Its value is “soluble”.

With “SLKITDVQLTAIGMPRLTGFVNKHVIVQLFTDEGIEGIGEMSDFSHLPKYAVDIVDLERTLKQILVGKNPFDIAPINTELNGNFPEAMYYYEKGSFIRNGVDTALYDLCAKALGVSVSDLLGGRQREKIKVCFPIFRHRFMDEVEANLELVKKQYEKGFDVFRLYVGKNVDADEAFLAGVYNEFGGKVKVKSLDFSHLLDWKEALRITRRLAKYPIDLVESPALRNDFAGLHHFRMRCELPVSEHVWSLRQQSEMIKHDSVDIFNIAPVFIGGITQARKAADAAAVAEKSVLIGTTQELSIGTTAMAYFGSTLDHLNYISDPTGPELYVGDVVKNKVNYENGYLHLPERSTIGLGMELDWEKVEQYRVESLNWEDVSVHQLQDRTAQTRA” as the sequence, how does the “soluble on expression in E. coli” value read?
The value was “not soluble”.
